Reference: US20250076311A1 (Chugai, published 2025)
Numbering of substitutions follows the chain as printed. Numbers in names are those of the source.

Tests used:
[1] = target: T1, cynomolgus monkey FcγRIIa1 extracellular domain with C-terminal His-tag (cynomolgus monkey); experiment: SPR (Biacore), KD of SG1 / KD of variant
T1 construct: also called cyno FcgRIIa1; cynoFcγRIIa1
T1 chain: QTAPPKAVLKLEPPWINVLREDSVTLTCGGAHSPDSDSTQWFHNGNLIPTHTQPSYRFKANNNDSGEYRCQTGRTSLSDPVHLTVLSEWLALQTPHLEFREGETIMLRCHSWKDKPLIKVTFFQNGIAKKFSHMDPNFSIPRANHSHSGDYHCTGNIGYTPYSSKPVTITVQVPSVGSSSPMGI

[2] = target: T2, human FcγRIIaH extracellular domain with C-terminal His-tag (human, UniProt P12318 34-217); experiment: SPR (Biacore), KD of SG1 / KD of variant
T2 construct: also called human FcgRIIaH; FcγRIIa (type H)
T2 sequence: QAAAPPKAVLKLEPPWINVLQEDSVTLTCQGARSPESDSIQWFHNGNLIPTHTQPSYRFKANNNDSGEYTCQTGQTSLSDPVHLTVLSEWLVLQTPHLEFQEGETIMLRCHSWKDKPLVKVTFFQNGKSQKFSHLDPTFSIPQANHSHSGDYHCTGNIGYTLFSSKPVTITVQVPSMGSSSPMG

[3] = target: T3, cynomolgus monkey FcγRIIIaS extracellular domain with C-terminal His-tag (cynomolgus monkey, UniProt Q8SPW2 21-206 at identity 1.00)); experiment: SPR (Biacore), antibody captured, FcgR analyte
T3 construct: also called cyno FcgRIIIaS; cynoFcγRIIIaS
T3 chain: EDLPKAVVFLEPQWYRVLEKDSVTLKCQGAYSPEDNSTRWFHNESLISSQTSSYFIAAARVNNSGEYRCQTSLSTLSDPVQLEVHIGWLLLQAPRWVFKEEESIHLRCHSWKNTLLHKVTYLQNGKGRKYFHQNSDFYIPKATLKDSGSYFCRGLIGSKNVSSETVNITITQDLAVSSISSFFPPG

[4] = target: T4, human FcγRIIaR extracellular domain with C-terminal His-tag (human, UniProt P12318 34-217); experiment: SPR (Biacore), KD of SG1 divided by KD of variant
T4 construct: also called human FcgRIIaR; FcγRIIa (type R)
T4 chain: T2 sequence with H134R
Protocol: (§1) The kinetic analysis of interactions between these antibodies and FcγR was carried out using BIACORE® T200 or BIACORE® 4000 (GE Healthcare). HBS-EP+ (GE Healthcare) was used as the running buffer, and the measurement temperature was set to 25° C. […] After the measurement, the antibody captured on the chip was washed off by allowing reaction with 10 mM glycine-HCl, pH1.5 and 25 mM NaOH so that the chip was regenerated and used repeatedly. The sensorgrams obtained as measurement results were analyzed by the 1:1 Langmuir binding model using the BIACORE® Evaluation Software to calculate the binding rate constant ka (L/mol/s) and dissociation rate constant kd (1/s), and the dissociation constant KD (mol/L) was calculated from these values. […] Regarding such interactions, KD values were calculated using the following 1:1 binding model described in BIACORE® T100 Software Handbook BR1006-48 Edition AE.

[5] = target: T5, cynomolgus monkey FcγRIIa3 extracellular domain with C-terminal His-tag (cynomolgus monkey); experiment: SPR (Biacore), KD of SG1 divided by KD of variant
T5 construct: also called cyno FcgRIIa3; cynoFcγRIIa3
T5 chain: T1 chain with P95T, T121A, A128S, H133P, D135N
Protocol: as §1

[6] = target: T6, cynomolgus monkey FcγRIIb extracellular domain with C-terminal His-tag (cynomolgus monkey); experiment: SPR (Biacore), antibody captured, FcgR as analyte
T6 construct: also called cyno FcgRIIb; cynoFcγRIIb
T6 chain: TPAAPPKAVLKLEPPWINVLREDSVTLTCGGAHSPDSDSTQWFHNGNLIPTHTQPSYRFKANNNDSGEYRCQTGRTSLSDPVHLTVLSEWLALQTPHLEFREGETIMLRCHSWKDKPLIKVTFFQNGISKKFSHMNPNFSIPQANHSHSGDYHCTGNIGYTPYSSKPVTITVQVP
Protocol: as §1

[7] = target: T7, cynomolgus monkey FcγRIIa2 extracellular domain with C-terminal His-tag (cynomolgus monkey); experiment: SPR (Biacore), antibody captured, FcgR as analyte
T7 construct: also called cyno FcgRIIa2; cynoFcγRIIa2
T7 chain: T1 chain with P95T, T121A, I127K, A128S, K130N, D135N, R142Q
Protocol: as §1

[8] = target: T8, human FcγRIIaH extracellular domain with C-terminal His-tag (human, UniProt P12318 34-217); experiment: SPR (Biacore), antibody captured, FcgR as analyte
T8 construct: also called human FcgRIIaH; FcγRIIa (type H)
T8 sequence: T2 sequence
Protocol: as §1

[9] = target: T6, cynomolgus monkey FcγRIIb extracellular …; experiment: SPR (Biacore), KD of SG1 divided by KD of variant
Protocol: as §1

[10] = target: T9, human FcγRIIb extracellular domain with C-terminal His-tag (human, UniProt P31994 43-217); experiment: SPR (Biacore), KD of SG1 divided by KD of variant
T9 construct: also called human FcgRIIb
T9 sequence: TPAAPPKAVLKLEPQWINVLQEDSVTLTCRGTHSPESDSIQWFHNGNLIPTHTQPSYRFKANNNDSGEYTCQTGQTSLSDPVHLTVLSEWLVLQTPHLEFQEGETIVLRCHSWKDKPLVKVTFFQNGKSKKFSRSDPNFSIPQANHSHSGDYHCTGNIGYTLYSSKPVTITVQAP
Protocol: as §1

[11] = target: T10, cynomolgus monkey FcγRIIa1 extracellular domain with C-terminal His-tag (cynomolgus monkey); experiment: SPR (Biacore), antibody captured, FcgR as analyte
T10 construct: also called cyno FcgRIIa1; cynoFcγRIIa1
T10 chain: T1 chain
Protocol: as §1

[12] = target: T11, cynomolgus monkey FcγRIIa2 extracellular domain with C-terminal His-tag (cynomolgus monkey); experiment: SPR (Biacore), KD of SG1 / KD of variant
T11 construct: also called cyno FcgRIIa2; cynoFcγRIIa2
T11 chain: T1 chain with P95T, T121A, I127K, A128S, K130N, D135N, R142Q

[13] = target: T12, cynomolgus monkey FcγRIIb extracellular domain with C-terminal His-tag (cynomolgus monkey); experiment: SPR (Biacore), KD of SG1 / KD of variant
T12 construct: also called cyno FcgRIIb; cynoFcγRIIb
T12 chain: T6 chain

[14] = target: T13, human FcγRIIaR extracellular domain with C-terminal His-tag (human, UniProt P12318 34-217); experiment: SPR (Biacore), KD of SG1 / KD of variant
T13 construct: also called human FcgRIIaR; FcγRIIa (type R)
T13 chain: T2 sequence with H134R

[15] = target: T14, cynomolgus monkey FcγRIIa3 extracellular domain with C-terminal His-tag (cynomolgus monkey); experiment: SPR (Biacore), antibody captured, FcgR analyte
T14 construct: also called cyno FcgRIIa3; cynoFcγRIIa3
T14 chain: T1 chain with P95T, T121A, A128S, H133P, D135N

[16] = target: T2, human FcγRIIaH extracellular domain …; experiment: SPR (Biacore), antibody captured, FcgR analyte
[17] = target: T7, cynomolgus monkey FcγRIIa2 …; experiment: SPR (Biacore), KD of SG1 divided by KD of variant
Protocol: as §1

[18] = target: T15, human FcγRIIIaV extracellular domain with C-terminal His-tag (human, UniProt P08637 17-208); experiment: SPR (Biacore), antibody captured, FcgR as analyte
T15 construct: also called human FcgRIIIaV
Protocol: as §1

T15 sequence (P08637 17-208 F176V): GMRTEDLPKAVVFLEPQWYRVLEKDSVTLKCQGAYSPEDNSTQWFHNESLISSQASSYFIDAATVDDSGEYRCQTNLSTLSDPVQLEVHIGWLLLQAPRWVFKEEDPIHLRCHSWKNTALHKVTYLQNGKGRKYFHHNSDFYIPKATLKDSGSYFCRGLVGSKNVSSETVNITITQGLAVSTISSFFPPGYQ

B1: M103205H795-MY446/M103202L889-SK1 (antibody, human IgG1, kappa)
heavy: QVTLKESGPVLVKPTETLTLTCTVSGIDLSHDDISWVRQAPGKGLEWVGIISYAGSTYYASWAKGRLTISKDTSKNQVVLTMTNMDPVDTATYYCARGVPAYSHGGDLWGQGTLVTVSSASTKGPSVFPLAPSSKSTSGGTAALGCLVKDYFPEPVTVSWNSGALTSGVHTFPAVLQSSGLYSLSSVVTVPSSSLGTQTYICNVNHKPSNTKVDKKVEPKSCDKTHTCPPCPAHELLTGPSVFLFPPKPKDTLMISRTPEVTCVVVDVSDEDPEVKFNWYVDGVEVHNAKTKPREEQYNSTYRVVSVLTVLHQDWLNGKEYKCKVSNKALPKPIEKTISKAKGQPREPQVYTLPPSREEMTKNQVSLTCLVKGFYPSDIAVEWESNGQPENNYKTTPPVLDSDGSFFLYSKLTVDKSRWQQGNVFSCSVMHEALHNHYTQKSLSLSP
light: DIVMTQSPATLSLSPGERATLSCTSSQSVYHANWLSWFQQKPGQPPKLLIYWASTLAYGVPSRFSGSGSGTDFTLTISSLQPEDAATYYCAGGYGGGRYAFGQGTKVEIKRTVAAPSVFIFPPSDEQLKSGTASVVCLLNNFYPREAKVQWKVDNALQSGNSQESVTEQDSKDSTYSLSSTLTLSKADYEKHKVYACEVTHQGLSSPVTKSFNRGEC
notes: Substitutions in EU numbering on SG1
KD fold (SG1 = 1) [1]: 1.5 fold

B2: M103205H795-MY472/M103202L889-SK1 (antibody)
chain 1: B1 heavy with A233S, H234P
chain 2: B1 light
KD fold (SG1 = 1) [1]: 1.3 fold | KD fold (SG1 = 1) [2]: 2.8 fold | Kd [3]: 2300 nM

B3: M103205H795-MY283 / M103202L889-SK1 (antibody, human IgG1, kappa, name in EU numbering)
heavy: B1 heavy with H234P, Q297L
light: B1 light
KD fold (SG1 = 1) [4]: 3.1 fold | KD fold (SG1 = 1) [5]: 3.9 fold

B4: M103205H795-MY450/M103202L889-SK1 (antibody, human IgG1, kappa)
heavy: B1 heavy with H234M
light: B1 light
notes: as for B1
KD fold (SG1 = 1) [1]: 2.5 fold | Kd [3]: 1300 nM

B5: M103205H795-MY523 / M103202L889-SK1 (antibody, human IgG1, kappa, name in EU numbering)
heavy: B1 heavy with A233G, H234P, S241V, Q297L
light: B1 light
Kd [6]: 480 nM | KD fold (SG1 = 1) [4]: 5.2 fold

B6: M103205H795-MY521 / M103202L889-SK1 (antibody)
heavy: B1 heavy with H234D, Q297L
light: B1 light
notes: 'Q235L' copied as printed, probably Q295L
Kd [7]: 3300 nM | Kd [8]: 290 nM | KD fold (SG1 = 1) [4]: 3.7 fold | KD fold (SG1 = 1) [9]: 2.3 fold | KD fold (SG1 = 1) [10]: 3.1 fold

B7: M103205H795-MY380 / M103202L889-SK1 (antibody, human IgG1, kappa, name in EU numbering)
heavy: B1 heavy with H234P, T238N, D270E, P398K
light: B1 light
Kd [11]: 930 nM | KD fold (SG1 = 1) [5]: 5.2 fold

B8: M103205H795-MY475/M103202L889-SK1 (antibody)
heavy: B1 heavy with A233W, H234P
light: B1 light
notes: as for B1
KD fold (SG1 = 1) [12]: 5.1 fold | KD fold (SG1 = 1) [13]: 6.7 fold | KD fold (SG1 = 1) [14]: 5.2 fold | Kd [15]: 2500 nM | Kd [16]: 900 nM

B9: M103205H795-MY527 / M103202L889-SK1 (antibody, human IgG1, kappa, name in EU numbering)
heavy: B1 heavy with A233T, H234P, Q297L
light: B1 light
KD fold (SG1 = 1) [17]: 3.9 fold | KD fold (SG1 = 1) [9]: 5.3 fold | KD fold (SG1 = 1) [10]: 3.3 fold

B10: M103205H795-MY529 / M103202L889-SK1 (antibody, human IgG1, kappa, name in EU numbering)
heavy: B1 heavy with H234P, L236W, Q297L
light: B1 light
Kd [6]: 300 nM | KD fold (SG1 = 1) [9]: 5 fold

B11: M103205H795-MY531 / M103202L889-SK1 (antibody, human IgG1, kappa, name in EU numbering)
heavy: B1 heavy with H234P, L236W, K328T
light: B1 light
KD fold (SG1 = 1) [17]: 5.5 fold

B12: M103205H795-MY388 (first row so labelled: G236L/H268D/Q295L/K326T/A330K) / M103202L889-SK1 (antibody, human IgG1, kappa, name in EU numbering)
heavy: B1 heavy with H234P, T238L, Q297L, K328T
light: B1 light
notes: The label MY388 is printed for two different variants; also called MY388 (first of two rows with this label)
Kd [6]: 1600 nM | Kd [18]: 2.4 nM
